From the supplement of paper PMC9170038

Tested on: MS2 coat protein
Experiment: apparent KD of MS2 coat protein; designed switch direction (-1 OFF switch, 1 ON switch): 1; higher = weaker reporter binding
Summary of the method: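 SNAP-549-labelled MS2 coat protein was titrated, doubling from 0.7 or 1.5 nM to 3 µM, over designed RNA switches transcribed on Illumina chips by stalled E. coli RNA polymerase. Runs were done without input, with 200 uM small-molecule ligand, or with an oligonucleotide input. Apparent KD is the per-design median over clusters of curve-fitted normalised fluorescence.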

[1] = Eterna round: R95, input ligand: FMN 200 uM
[2] = Eterna round: R95, input ligand: microRNA oligo, concentration not stated
[3] = Eterna round: R95, input ligand: none
[4] = input ligand: microRNA oligo, concentration not stated

Sequence: UCAACUUCUUUUAGUGUGUUGCCAGUUUUACAUGAGGAUCACCCAUGUUAAGUAUUGUGGUAUUUUGUUCGUCUUAA [JR_SHM208A_Sub073] (puzzle: Sensor for hsa-mir-208a)
- apparent KD of MS2 coat protein [1]: 15.6 nM
- apparent KD of MS2 coat protein [2]: 14.3 nM
- apparent KD of MS2 coat protein [3]: 16.3 nM

Sequence: UCAAGCGAGAGGCUCGUCUUAUGCAAGGAACAUGAGGAUCACCCAUGUGAGGGACGAUUGAGUUAGAUGGAAUGGAG [JR_SHM208A_Sub032] (puzzle: Sensor for hsa-mir-208a)
- apparent KD of MS2 coat protein [1]: 29.9 nM
- apparent KD of MS2 coat protein [2]: 136 nM
- apparent KD of MS2 coat protein [3]: 33.5 nM

Sequence: UCAAGGUUUUUGCUCGUUUUAUGUGUUGAACAUGAGGAUCACCCAUGUAUUGUACGAUCCAGUUAGAUGGUGGUUUG [JR_SHM208A_Sub042] (puzzle: Sensor for hsa-mir-208a)
- apparent KD of MS2 coat protein [1]: 87.4 nM
- apparent KD of MS2 coat protein [2]: 78.1 nM
- apparent KD of MS2 coat protein [3]: 132 nM

Sequence: UCAUGGUUUUUGCUCGUUUUAUGUGUUGAACAUGAGGAUCACCCAUGUAUUGUACGAUCCAGUUAGAUGGUGGUUUG [JR_SHM208A_Sub043] (puzzle: Sensor for hsa-mir-208a)
- apparent KD of MS2 coat protein [1]: 235 nM
- apparent KD of MS2 coat protein [2]: 85.8 nM
- apparent KD of MS2 coat protein [3]: 469 nM

Sequence: UCCGCUAUCUAGAAGGAUAUGCGUAAAUAAACAUGAGGAUCACCCAUGUACCGGCGAAAGCCGGUGCAGAAGGUUUAGCUAGUGA [Xeisgexe] (puzzle: Same State 2)
- apparent KD of MS2 coat protein [1]: 38.2 nM
- apparent KD of MS2 coat protein [2]: 574 nM
- apparent KD of MS2 coat protein [3]: 390 nM

Sequence: UCGGGCGUACUUGCUGACAUGAGGAUCACCCAUGUCCUUGGACAGGAUAUGGUUCCGUUUCGGUUCCAGAAGGUCCUGGCUGCU [salish99_SSNG3_r04_320] (Eterna round: R96, puzzle: Same State NG 3)
- apparent KD of MS2 coat protein (input ligand: FMN 200 uM): 31.8 nM
- apparent KD of MS2 coat protein [4]: 25.5 nM
- apparent KD of MS2 coat protein (input ligand: none): 40.9 nM

Sequence: UCUUGGUUUUUGCUCGUUUUUUGUGUUGAACAUGAGGAUCACCCAUGUAUUGUACGGUCCAGUUUGAUAGUGGUCCG [JMF 33] (puzzle: Sensor for hsa-mir-208a)
- apparent KD of MS2 coat protein [1]: 25.6 nM
- apparent KD of MS2 coat protein [2]: 13.6 nM
- apparent KD of MS2 coat protein [3]: 29.9 nM

Sequence: UCUUGGUUUUUGCUCGUUUUUUGUGUUGAACAUGAGGAUCACCCAUGUAUUGUACGGUCCGAUUUAGUAGUGGUCCG [JMF 18] (puzzle: Sensor for hsa-mir-208a)
- apparent KD of MS2 coat protein [1]: 26 nM
- apparent KD of MS2 coat protein [2]: 14.5 nM
- apparent KD of MS2 coat protein [3]: 26.9 nM

Sequence: UCUUGGUUUUUGCUCGUUUUUUGUGUUGAACAUGAGGAUCACCCAUGUAUUGUACGGUCCGGUUUAGUGAUGAUCCA [JMF 76] (puzzle: Sensor for hsa-mir-208a)
- apparent KD of MS2 coat protein [1]: 188 nM
- apparent KD of MS2 coat protein [2]: 196 nM
- apparent KD of MS2 coat protein [3]: 287 nM

Sequence: UGAACCUUCACAGGAUAUCAUGCGAAAAUUGCGUGAGAAGGGUGAAUAUGGUGUUCAUAGUUGCACAUGAGGAUCACCCAUGUA [SameState NG1 #53] (Eterna round: R96, puzzle: Same State NG 1)
- apparent KD of MS2 coat protein [4]: 92.3 nM

Sequence: UGAAUAGUCACAGGAUAUCAUGCGAAAAUUGCGUGAGAAGGGUGGAUGUUGUGCUCAAAGUUCUACAUGAGGAUCACCCAUGUU [SameState NG1 #43] (Eterna round: R96, puzzle: Same State NG 1)
- apparent KD of MS2 coat protein (input ligand: FMN 200 uM): 61.2 nM
- apparent KD of MS2 coat protein [4]: 64 nM
- apparent KD of MS2 coat protein (input ligand: none): 63.3 nM

Sequence: UGAAUAUUCACAGGAUAUGAGUUGUAAAGUGGAUCAGAAGGGUGGGUGUUUUGCACGGUGUGUUACAUGAGGAUCACCCAUGUU [SameState NG1 #24] (Eterna round: R96, puzzle: Same State NG 1)
- apparent KD of MS2 coat protein (input ligand: FMN 200 uM): 205 nM
- apparent KD of MS2 coat protein [4]: 232 nM
- apparent KD of MS2 coat protein (input ligand: none): 627 nM

Sequence: UGCAUACAUGAGGAUCACCCAUGUCUACGAUGUCGAGGAUAUGGAUUGCCGUGAGGCGUGCCAGAAGGCGAAGUGG [Same State 1 - Mod of Vinnie Teenbexe v.2] (puzzle: Same State 1)
- apparent KD of MS2 coat protein [1]: 26.2 nM
- apparent KD of MS2 coat protein [2]: 33.7 nM
- apparent KD of MS2 coat protein [3]: 30.1 nM

Sequence: UGCCUGAGUCGAGGAUAUUAUGGAUCAAUUAAUACAUGAGGAUCACCCAUGUAAUUAAUUUAACAUGAGAAGGCGACUCAGGCA [SSNG2/10-A2] (Eterna round: R96, puzzle: Same State NG 2)
- apparent KD of MS2 coat protein (input ligand: FMN 200 uM): 7.88 nM
- apparent KD of MS2 coat protein [4]: 4.69 nM
- apparent KD of MS2 coat protein (input ligand: none): 8.81 nM

Sequence: UGGAGAAAUCAAGGAUAUGCUACCGUUUCGGUAGCAGAAGGUGAUCACAUGAGGAUCACCCAUGUAUGCAUGCGUGAGCGUGCU [JL SSNG1 3.54] (Eterna round: R96, puzzle: Same State NG 1)
- apparent KD of MS2 coat protein [4]: 12.6 nM

Sequence: UGGAUCUAGGCUUGCCUGGGUCCAUGCUGACAUGAGGAUCACCCAUGUGCAUCCUACAAGCUUUUUGCUUGUCUGUC (Eterna round: R96, puzzle: Sensor for hsa-mir-208a)
- apparent KD of MS2 coat protein (input ligand: FMN 200 uM): 384 nM
- apparent KD of MS2 coat protein [4]: 607 nM
- apparent KD of MS2 coat protein (input ligand: none): 530 nM

Sequence: UGGAUCUAGGCUUGCCUGGGUCCAUGCUGACAUGAGGAUCACCCAUGUGCAUCCUACAAGCUUUUUGCUUGUCUGUC (puzzle: Sensor for hsa-mir-208a)
- apparent KD of MS2 coat protein [1]: 60.7 nM
- apparent KD of MS2 coat protein [2]: 69.7 nM
- apparent KD of MS2 coat protein [3]: 51 nM

Sequence: UGGCUCAGACUAGGAUAUACGUGGUCACAUGAGGAUCACCCAUGUCUCGAGCUUCGGCUCGAGGCGUAGAAGGAGUCUGAGCCA [SSNG2/6-D2] (Eterna round: R96, puzzle: Same State NG 2)
- apparent KD of MS2 coat protein (input ligand: FMN 200 uM): 145 nM
- apparent KD of MS2 coat protein [4]: 199 nM
- apparent KD of MS2 coat protein (input ligand: none): 184 nM

Sequence: UGGCUCAGAGCAGGAUAUAUGUAAUAACAUGAGGAUCACCCAUGUGUCGAGCUUCGGCUCGACACAUAGAAGGGCUCUGAGCCU [SSNG2/2-B3] (Eterna round: R96, puzzle: Same State NG 2)
- apparent KD of MS2 coat protein (input ligand: FMN 200 uM): 12 nM
- apparent KD of MS2 coat protein [4]: 28.8 nM
- apparent KD of MS2 coat protein (input ligand: none): 40.3 nM

Sequence: UGGUACAUGGGAGGAUAUCAUGCAAACAUGAGGAUCACCCAUGUAACCAUGGAGACAUGGAUAUAUGAGAAGGCCCAUGUACCU [JL SSNG1 3.51] (Eterna round: R96, puzzle: Same State NG 2)
- apparent KD of MS2 coat protein (input ligand: FMN 200 uM): 11 nM
- apparent KD of MS2 coat protein [4]: 19.6 nM
- apparent KD of MS2 coat protein (input ligand: none): 27.9 nM

Sequence: UGGUACAUGGGAGGAUAUCAUGUAGAAACAUGAGGAUCACCCAUGUAGAUGGCACGAUUCGUGAAUGAGAAGGCCCAUGUACCU [JL SSNG1 3.60] (Eterna round: R96, puzzle: Same State NG 2)
- apparent KD of MS2 coat protein (input ligand: FMN 200 uM): 36.8 nM
- apparent KD of MS2 coat protein [4]: 38.2 nM
- apparent KD of MS2 coat protein (input ligand: none): 52.8 nM
